The record followed here is patent US20190048074A1 (Regeneron, published 2019).

To fix the notation:
T1: full-length human APLNR (human, UniProt P35414 1-380)
T1 sequence: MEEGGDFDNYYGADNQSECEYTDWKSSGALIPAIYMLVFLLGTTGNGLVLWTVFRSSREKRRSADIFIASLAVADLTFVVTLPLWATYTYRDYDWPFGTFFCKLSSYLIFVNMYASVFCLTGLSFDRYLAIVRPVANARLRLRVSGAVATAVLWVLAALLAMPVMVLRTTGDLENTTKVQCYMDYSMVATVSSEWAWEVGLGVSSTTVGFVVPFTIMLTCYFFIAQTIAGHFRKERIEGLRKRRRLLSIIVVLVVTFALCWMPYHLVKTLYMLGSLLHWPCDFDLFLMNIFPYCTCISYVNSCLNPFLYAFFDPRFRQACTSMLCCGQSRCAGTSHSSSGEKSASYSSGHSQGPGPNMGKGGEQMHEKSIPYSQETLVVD

T2: human Apelin receptor (hAPLNR) in PathHunter eXpress AGTRL1 CHO-K1 β-Arrestin cells (human, UniProt P35414 1-380)
T2 sequence: T1 sequence

T3: full length cynomolgus APLNR (cynomolgus monkey (Macaca fascicularis), UniProt O97666 1-380 (rhesus entry))
T3 construct: Stably expressed on HEK293/CRE-luc/MfAPLNR cells; also called MfAPLNR; mfAPLNR
T3 sequence: T1 sequence with F101S, L167F, E194D, I290V

B1: H2aM9222N (antibody, V domains shown)
VH: EVQLVESGGGLVQPGGSLRLSCAASGFTFSNYWMSWVRQAPGKGLEWVANIKQDGSERYYVGSVKGRFTISRGDAENSLYLQMNSLRAEDTAVYYCARDRFGYSAYDKGVRYYYGMDVWGQGTTVTVSS
VL: DIQMTQSPSSLSASVGDRVTITCRASQGIRNDLGWYQQKPGKAPKRLIYAASSLQSGVPSRFSGSGSGTEFTLTISSLQPEDFATYYCLQHNSYPRTFGQGTKVEIK
notes: Human variable domains, mouse IgG2a Fc
B2: H2aM9230N (antibody, V domains shown)
VH: B1 VH with N31S, Y32F, A40V, E46Q, R58K, G62D, G73D, D74N, E76K, A105V
VL: B1 VL with A13V, S77G, P80S, N92K
notes: as for B1
B3: H2aM9227N (antibody, V domains shown)
VH: B1 VH with N31S, Y32F, A40V, R58K, G62D, G73D, D74N, E76K, A105F
VL: B1 VL with A13V, A51T, S77G
notes: as for B1
B4: H2aM9228N (antibody, V domains shown)
VH: B1 VH with Q39L, E76K, Y106F
VL: B1 VL
notes: as for B1
B5: H1M9207N (antibody, V domains shown)
VH: EVQLVESGGGLAQPGGSLRLSCAASGFTFSNYWMSWVRQAPGKGLEWVANIKQDGSEKYYLESVKGRFTISRDNAKNLLYLQMNSLRAEDTAVFYCARPGLLRFLEPGRRYYSGMNVWGQGTTVTVSS
VL: DIQLTQSPSFLSASVGDRVTITCWASQGIRSYLAWYQQKPGKAPKLLIYAASTLQSGVPSRFSGSGSGTEFTLTISSLQPEDFATYYCQQFNSYPWTFGQGTKVEIK
notes: Human variable domains, mouse IgG1 Fc (H1M prefix)
B6: H2aM9232N (antibody, V domains shown)
VH: QVKLVESGGGVVQPGRSLRLSCAASGFTFSNYVIHWVRQAPGKGLEWVAVIWYDGSNKYYADSVKGRFTISRDNSKNTLYLQMNSLRAEDTAVYYCARDRVVRGVDYYYYYGLDVWGQGTSVTVSS
VL: EIVMTQSPATLSVSPGERATLSCRASQSVRSNLAWYQQKPGQAPRLLIYGASSRATGIPARFSGTGSGTEFTLTISSLQSDDFAVYYCQQYNKWPRTFGQGTKVEIK
notes: as for B1
B7: H2aM9209N (antibody, V domains shown)
VH: EVQLLESGGGLVQPGGSLRLSCAASGFTFSNYAMNWVRQAPGRGLEWVSAIHYDGSNSYYADSVKGRFTISRDNSKNTLYLQMNSLRAEDTAIYYCAILSRVYWGQGTLVTVSS
VL: DIQMTQSPSSLSASVGDRVTITCRASQGINNYLAWFQQKPGKAPKSLIYATSSLQSGVPSKFSGSGSGTDFTLTISSLQPEDFATYYCQQYNSYPLTFGGGTKVEIK
B8: H4H9209N (antibody, V domains shown)
VH: B7 VH
VL: B7 VL
B9: H4H9093P (antibody, V domains shown)
VH: EVQLVESGGGLVKPGGSLRLSCAASGITFSNAWMSWVRQAPGKGLEWVGRFKGKADGGTVDYAAPVKGRFTISRDDSKNTLYLQMNSLKNEDTAVYYCTTGRITMVRGVLGYWGQGTLVTVSS
VL: not shown
B10: H4H9104P (antibody, V domains shown)
VH: QVQLVESGGDLVKPGGSLRLSCAASGFTFSDYYMNWIRQAPGKGLEWVSYISSSGSTIHYADSVKGRFTISRDNAKNLVYLRMNSLRAEDTAVYFCAREREVHDYSDPYFFFYGMDVWGQGTTVTVSS
VL: DIQMTQSPSSVSASVGDRVTITCRASQDVSSWLAWYQHKPGKAPKLLIFAASSLQSGVPSRFSGSGSGTDFTLTISSLQSEDFATYYCQQANSFPLTFGGGTKVEIK
notes: Fully human, human IgG4 Fc
B11: H4H9103P (antibody, V domains shown)
VH: EVQLVESGGGLVQPGRSLRLSCAASGFTFDDYAMHWVRQVPGKGLEWVSGITWNSGDIGYADSVKGRFTISRDNAKNSLYLQMNSLRAEDTALYYCTKDKDSSGYYGIDVWGQGTTVTVSS
VL: DIQMTQSPSSVSASVGDRVTITCRASQGIRTWLAWYQQKPGKAPKLLIYAASSLQSGVPSRFSGSESGTDFTLTISSLQPEDFATYYCQQANSFPFTFGPGTKVDIK
notes: Fully human, human IgG4 Fc
B12: H4H9101P (antibody, V domains shown)
VH: QVQLVQSGAEVKKPGASVEVSCKASGYTFTDYYIHWIRQAPGQGLEWMGWINPDSGRTNYAQKFQVRVTMTRDTSITTAYMELNRLKSDDTAVYYCARGPLRGYSGYDFFDYWGQGTLVTVSS
VL: B5 VL with R30S, T85S, Y87F, F91L, Y94N, W96R
notes: Fully human, human IgG4 Fc
B13: H4H9112P (antibody, V domains shown)
VH: B12 VH
VL: DIQMTQSPSSLSAFVGDRVTITCRASQSISSYLNWYQQKPGKAPKLLIYTASTLQRGVPSRFRGSGSGTDFTLTISSLQPEDFATYYCHQTYSIPITFGQGTRLEIK
notes: Fully human, human IgG4 Fc
B14: H4H9113P (antibody, V domains shown)
VH: B12 VH
VL: B1 VL with K45N, Q79H, Y87S, Y94F, R96L, Q100G
notes: Fully human, human IgG4 Fc

Positions count from the first letter of the chain named. Names and notes keep the numbering of the source.

For the first experiment, the target named is T1, full-length human APLNR. In words: cell-based or functional assay.
Take B1: the “% Activation at 500 nM mAb (at 7.5 uM Forskolin)” value (“% Activation at 500 nM mAb” for short) stood at 21%.

In the case of B2, the “% Activation at 500 nM mAb” value was found to be 52%.

In the case of B3, the “% Activation at 500 nM mAb” value is 45%.

For the molecule B4, the “% Activation at 500 nM mAb” value came to 49%.

A further experiment has as its target T1, full-length human APLNR. The experiment in a line: cell-based or functional assay. This is another data set of the same source.
Turning to B5, the “% Inhibition at 100 nM antibody, in the presence of 100 ρM Apelin (at 5 µM Forskolin)” value (“% Inhibition at 100 nM antibody” below) was found to be 83% and the “IC50 [M], in the presence of 100 ρM Apelin (at 5 µM Forskolin)” value (shortened to “IC50 [M] … (at 5 µM Forskolin)”) is 3e-09 M.

On to B6, for which the “% Inhibition at 100 nM antibody” value amounted to 98% and the “IC50 [M] … (at 5 µM Forskolin)” value was 4.2e-09 M.

With B7, the “% Inhibition at 100 nM antibody” value is 7%.

For the molecule B1, the “% Inhibition at 100 nM antibody” value was determined as 11%.

Consider B2, for which the “% Inhibition at 100 nM antibody” value is 49% and the “IC50 [M] … (at 5 µM Forskolin)” value was found to be 2.4e-09 M.

Take B3: the “% Inhibition at 100 nM antibody” value is 33% and the “IC50 [M] … (at 5 µM Forskolin)” value came out at 4.3e-09 M.

For B4, the “% Inhibition at 100 nM antibody” value was found to be 26% and the “IC50 [M] … (at 5 µM Forskolin)” value was above 1e-07 M.

The target in a further experiment is T1, full-length human APLNR. In words: cell-based or functional assay. This is another data set of the same source.
For B6, the “Inhibiting IC50 (M), pERK/total ERK assay, CHO/hAPLNR cells” value was 2.09e-07 M.

For the molecule B1, the “Activating EC50 (M), pERK/total ERK assay, CHO/hAPLNR cells” value is 4.79e-08 M.

As to B4, the “Activating EC50 (M), pERK/total ERK assay, CHO/hAPLNR cells” value turned out to be 6.41e-08 M.

Another experiment addresses T1, full-length human APLNR. In words: cell-based or functional assay. The source holds these as a separate data set.
As for B8, the “% Inhibition at 100 nM mAb, in the presence of 100 ρM Apelin (at 10 µM Forskolin)” value is 16% and the “IC50 [M], in the presence of 100 ρM Apelin (at 10 µM Forskolin)” value stood at 5.9e-09 M.

The next experiment concerns the target T1, full-length human APLNR. The experiment in a line: cell-based or functional assay. The source holds these as a separate data set.
Consider B9, for which the “% Inhibition at 100 nM mAb, in the presence of 100 ρM Apelin (at 7.5 µM Forskolin)” value is 3%.

A further experiment addresses T2, human Apelin receptor (hAPLNR) in …. The experiment in a line: cell-based or functional assay.
In the case of B9, the “% Activation at 500 nM antibody or Apelin-antibody fusion” value is 2%.

The next experiment addresses T1, full-length human APLNR. The experiment in a line: FACS, 10 µg/mL antibody, HEK293/CRE-luc/hAPLNR cells.
For B5, the “Binding Ratio of Geom. Mean to Unstained Cells” value (from here on “Binding Ratio of Geom. Mean”) amounted to 2180 fold.

Turning to B6, the “Binding Ratio of Geom. Mean” value was found to be 2860 fold.

Consider B2, for which the “Binding Ratio of Geom. Mean” value was 2940 fold.

B3: the “Binding Ratio of Geom. Mean” value was 4100 fold.

For the molecule B4, the “Binding Ratio of Geom. Mean” value amounted to 1490 fold.

Another experiment concerns the target T1, full-length human APLNR. Described as above. The source holds these as a separate data set.
Take B10: the “Binding Ratio of Geom. Mean” value came out at 2 fold.

In the case of B11, the “Binding Ratio of Geom. Mean” value was found to be 3 fold.

As for B12, the “Binding Ratio of Geom. Mean” value turned out to be 3 fold.

For B13, the “Binding Ratio of Geom. Mean” value amounted to 2 fold.

Turning to B14, the “Binding Ratio of Geom. Mean” value was 2 fold.

The target of a further experiment is T3, full length cynomolgus APLNR. The experiment in a line: FACS, 10 µg/mL antibody, HEK293/CRE-luc/MfAPLNR cells.
For the molecule B5, the “Binding Ratio of Geom. Mean” value came to 1310 fold.

Regarding B6, the “Binding Ratio of Geom. Mean” value came to 678 fold.

Turning to B2, the “Binding Ratio of Geom. Mean” value stood at 658 fold.

For the molecule B3, the “Binding Ratio of Geom. Mean” value came out at 1440 fold.

Consider B4, for which the “Binding Ratio of Geom. Mean” value came to 108 fold.

The target is the same in the next experiment. The description is as above. This is another data set of the same source.
For the molecule B10, the “Binding Ratio of Geom. Mean” value was 1 fold.

On to B11, for which the “Binding Ratio of Geom. Mean” value was found to be 2 fold.

In the case of B12, the “Binding Ratio of Geom. Mean” value was 2 fold.

For B13, the “Binding Ratio of Geom. Mean” value was 2 fold.

On to B14, for which the “Binding Ratio of Geom. Mean” value came out at 1 fold.
